Values belong to the binder of their own block, whether it stands above or below them.
How the values were obtained:
[1] = target: TCRs of the MBP-69-89 specific short-term T cell line (Lewis rat) (rat); assay: cell-based or functional assay
[2] = target: TCR of the rat Vβ8.2+ T cell hybridoma C14/BW12-12A1 (A1), specific for Gp-BP-72-89 (rat); assay: flow cytometry, direct binding study on A1 hybridoma
[3] = target: TCR of the rat Vβ8.2+ T cell hybridoma C14/BW12-12A1 (A1), specific for Gp-BP-72-89 (rat); assay: flow cytometry, A1 hybridoma with 10 µM complex 17 h at 4 C, detected with OX6-PE
[4] = target: TCR of the rat Vβ8.2+ T cell hybridoma C14/BW12-12A1 (A1), specific for Gp-BP-72-89 (rat); assay: flow cytometry, directly labelled complex on A1 hybridomas, 3 h at 4 C
[5] = target: TCR of the cardiac myosin CM-2-specific cell line (rat); assay: flow cytometry, CM-2 line (blocked with unconjugated OX6) with 10 µM complex 17 h at 4 C, detected with OX6-PE

- inhibition of proliferation of the T cell line to MBP-69-89 + APC after pre-treatment with 10 nM complex [1]: > 90%
- fold increase in MFI over background [2]: 10 fold
- mean fluorescence intensity (MFI) [3]: 800 Units
B1: β1α1/MBP-69-89 complex (rat RT1.B β1α1 construct loaded with MBP-69-89 peptide) (peptide-MHC)
chain: MGRDSPRDFVYQFKGLCYYTNGTQRIRDVIRYIYNQEEYLRYDSDVGEYRALTELGRPSAEYFNKQYLEQTRAELDTVCRHNYEGSEVRTSLRRLGGQDDIEADHVAAYGINMYQYYESRGQFTHEFDGDEEFYVDLDKKETIWRIPEFGQLTSFDPQGGLQNIAIIKHNLEILMKRSNSTQAVN
peptide: GSLPQKSQRSQDENPVVHF

- MCI [4]: 300 Units
B2: A488-β1α1/MBP-69-89 (Alexa-488 conjugated rat β1α1 loaded with MBP-69-89) (peptide-MHC)
chain: B1 chain
peptide: GSLPQKSQRSQDENPVVHF
modifications: Alexa-488 dye conjugated, molar ratio dye/protein=1; site not stated

- inhibition of proliferation of the T cell line to MBP-69-89 + APC after pre-incubation with 20 µM complex [1]: 27%
B3: β1α1/MBP-55-69 complex (rat RT1.B β1α1 with Gp-MBP-55-69 peptide) (peptide-MHC)
chain: B1 chain
peptide: SGKDSHHAARTTHYG

- mean fluorescence intensity (MFI) [5]: 1800 Units
B4: β1α1/CM-2 complex (rat RT1.B β1α1 construct loaded with cardiac myosin peptide CM-2) (peptide-MHC)
chain: B1 chain
peptide: KLELQSALEEAEASLEH

From patent US20110262479A1
